Test results: patent publication US8329865B2, “Antimicrobially active peptides” (priority 2001, dated 2012)

Tests used:
human erythrocytes = assay: Hemolytic assay; type: cell-based; settings: 100 μg/ml
Protocol: Hemolytic assay. The hemolytic activity of DCD peptides was determined on fresh human erythrocytes, which were separated from human EDTA blood using a Ficoll gradient. Isolated erythrocytes were washed three times in 5 ml of PBS (50 mM sodium phosphate buffer, 150 mM NaCl [pH 7.0]) and centrifuged at 1,000×g for 6 min at room temperature. The pellets were resuspended in PBS and further diluted to a concentration of 10^9 human erythrocytes/ml. Hemolytic activity was determined as follows. To the human erythrocyte solution (50 μl), PBS (1 ml) was added, followed by different concentrations of the peptides. The suspension was incubated for 30 min at 37° C. and then centrifuged at 1,000×g for 6 min at 4° C. The supernatant was monitored at 415 nm by using a spectrophotometer (Bio-Rad, Munich, Germany). The hemolytic activity of each peptide was expressed as the percentage of the total hemoglobin release compared to the release after incubation with Millipore water.

[1] = CF release assay with unilamellar liposomes; settings: even after the addition of 10 μM peptide; relative to Triton X-100
Protocol: FIG. 9. Effect of DCD-derived peptides on membrane permeability. (A) Outer membrane permeability measured by peptide-mediated NPN uptake in E. coli ML-35p. E. coli cells were incubated with 10 μM NPN in the presence of various concentrations of DCD peptides in 5 mM sodium HEPES buffer (pH 7.4). Enhanced uptake due to membrane permeability was measured by an increase in fluorescence intensity (Ex350 and Em460) caused by partition of NPN into the hydrophobic interior of the outer membrane. At time point 0 min, intact E. coli ML-35p cells were added to the peptides. The results are expressed as NPN uptake factor of fluorescence in arbitrary units. All analyses were performed in triplicates. (B) Inner membrane permeability measured as the influx of ONPG in E. coli ML-35p after the addition of DCD peptides. […] The release of ONP by cytoplasmic β-galactosidase was spectrophotometrically monitored at 420 nm. […] All samples were analyzed in triplicates. […] Release was determined 4 min after peptide addition at concentrations of 1 to 10 μM. […] Reaction progress was expressed as the percentage of CF released relative to the total fluorescence released after the addition of Triton X-100 solution at the end of each experiment.
Preparation of liposomes and CF release assay. […] The liposome concentration was determined by phosphorous analysis (Rouser, G. et al. 1970 Lipids 5:494-496). […]

[2] = system: Escherichia coli, Staphylococcus aureus, Enterococcus faecalis and Candida albicans; assay: CFU test (colony-forming units), Example 4; type: cell-based; settings: sodium phosphate buffer, 37° C., 3 h, 4 h or overnight
Protocol: The antimicrobial effect of said peptides was carried out by a CFU test (test for colony-forming units) as described for the defensins by Valore et al., “Human Beta-Defensin-1: An Antimicrobial Peptide of Urogenital Tissues”, J Clin Invest 101, 1633-1642 (1998).
The test of the novel peptides was carried out with Escherichia coli, Staphylococcus aureus, Enterococcus faecalis and Candida albicans. E. coli was incubated in LB medium, E. faecalis and S. aureus in Columbia medium (Difko, BD Heidelberg) and C. albicans in casein hydrolysate medium (Merck, Darmstadt). The amounts of bacteria and yeasts were determined by photometry. The bacterial strains were incubated to an optical density of […] at 600 nm and the yeast was incubated to an optical density of 0.4-0.6 at 450 nm. The amount of the organisms was determined by plating various dilutions as follows: an OD of 1 at 600 nm is equivalent to 8.2×10^9/ml for E. coli, 1.9×10^10/ml for S. aureus and 9.0×10^9/ml for E. faecalis, and an OD of 1 at […] is equivalent to 1.4×10^8/ml for C. albicans.
The cells were washed twice with 10 mM sodium phosphate buffer (pH 7.4) and diluted to 2-3×10^7 cells/ml (E. coli, E. faecalis), 5.7×10^7 cells/ml (S. aureus) or 5×10^5 cells/ml (C. albicans) in phosphate buffer.
The cells were incubated with various amounts of the peptides in 200 μl of sodium phosphate buffer at 37° C. for 3 h, 4 h or overnight (21-24 h). The cells were diluted 1:10 to 1:100 for the bacteria and 1:500 to 1:5000 for the yeast, and 50 μl, 100 μl and 200 μl were plated on appropriate agar plates. The plates were incubated at 37° C. overnight, and the number of colonies was counted. The antimicrobial effect of the peptides has been stated as percentage of killed cells: [1−(cell survival after incubation with the peptide)/(cell survival after control incubation)]×100.

[3] = CD spectroscopy, secondary structure; type: physicochemical
Protocol: CD) spectroscopy. Circular dichroism (CD) measurements were performed with a Jasco J-720 CD spectrapolarimeter (Jasco, Tokyo, Japan) to determine the secondary structure of DCD-derived peptides. The data are reported as the average of three to four scans at 50 nm/min with a 1-nm step resolution. The CD spectra of the peptides (50 μM) in 10 mM sodium phosphate buffer (pH 7.0) with different amounts of NaCl (10, 100, and 150 mM) in 0 to 60% (vol/vol) trifluoroethanol (TFE) and in the presence of artificial phospholipid vesicles such as DOPC and DOPC-DOPG (1:1 molar ratio) were recorded at room temperature in the 180- to 260-nm wavelength range. The data are reported as the mean residue ellipticity in units of degrees cm^2 dmol^−1 and plotted versus wavelength. The secondary structural predictions for peptides were carried out by Jasco secondary structure software.

[4] = DOPC-DOPG (1:1 molar ratio) liposomes

Compound | hemolytic activity (human erythrocytes) | CF leakage from liposomes made of DOPC and DOPC-DOPG [1] | antimicrobial effect (percentage of killed cells) [2] | Secondary structure, Random coil ([3]; 10 mM NaP) | Secondary structure, Turn ([3]; 10 mM NaP) | Secondary structure, α-Helix ([3]; 10 mM NaP) | Secondary structure, β-Sheet ([3]; 10 mM NaP) | Secondary structure, Random coil ([3]; 60% TFE) | Secondary structure, Turn ([3]; 60% TFE) | Secondary structure, α-Helix ([3]; 60% TFE) | Secondary structure, β-Sheet ([3]; 60% TFE) | Secondary structure, Random coil [3, 4] | Secondary structure, Turn [3, 4] | Secondary structure, α-Helix [3, 4] | Secondary structure, β-Sheet [3, 4] | Secondary structure, Random coil ([3]; dH2O) | Secondary structure, Turn ([3]; dH2O) | Secondary structure, α-Helix ([3]; dH2O) | Secondary structure, β-Sheet ([3]; dH2O)
CC[C@H](C)[C@H](NC(=O)[C@H](CCCCN)NC(=O)[C@H](CCC(=O)O)NC(=O)[C@H](CCCCN)NC(=O)[C@H](CO)NC(=O)[C@H](CCCCN)NC(=O)[C@H](CCCNC(=N)N)NC(=O)[C@H](Cc1ccccc1)NC(=O)[C@H](Cc1ccccc1)NC(=O)[C@H](CC(=O)O)NC(=O)CNC(=O)[C@H](CC(C)C)NC(=O)[C@@H](N)CC(C)C)C(=O)NCC(=O)N[C@@H](CCCCN)C(=O)N[C@@H](CCC(=O)O)C(=O)N[C@@H](Cc1ccccc1)C(=O)N[C@@H](CCCCN)C(=O)N[C@@H](CCCNC(=N)N)C(=O)N[C@H](C(=O)N[C@H](C(=O)N[C@@H](CCC(N)=O)C(=O)N[C@@H](CCCNC(=N)N)C(=O)N[C@H](C(=O)N[C@@H](CCCCN)C(=O)N[C@@H](CC(=O)O)C(=O)N[C@@H](Cc1ccccc1)C(=O)N[C@@H](CC(C)C)C(=O)N[C@@H](CCCNC(=N)N)C(=O)N[C@@H](CC(N)=O)C(=O)N[C@@H](CC(C)C)C(=O)N[C@H](C(=O)N1CCC[C@H]1C(=O)N[C@@H](CCCNC(=N)N)C(=O)N[C@H](C(=O)N[C@@H](CCC(=O)O)C(=O)N[C@@H](CO)C(=O)O)[C@@H](C)O)C(C)C)[C@@H](C)CC)C(C)C)[C@@H](C)CC [LL-37] | up to 2.5% |  |  |  |  |  |  |  |  |  |  |  |  |  |  |  |  |  | 
DPYAEAASGPNPGSKSHESAQAENCGADPE [DPI, negative control peptide, unrelated scrambled peptide] |  | ≤ 2% | no appreciable antimicrobial effect | 54.8% | 19.4% | 0.0% | 25.8% | 42.5% | 6.0% | 9.6% | 42.0% | 51.2% | 19.1% | 0.0% | 29.7% | 50.3% | 15.4% | 0.0% | 34.3%
